Publication PMC10499821

B1: unnamed (parent)
chain 1: NNELSPVALRQMSCAAGTTQTACTDDNALAYYNTTKGGRFVLALLSDLQDLKWARFPKSDGTGTIYTELEPPCRFVTDTPKGPKVKYLYFIKGLNNLNRGMVLGSLAATVRLQ
chain 2: AEGIDIGEMPSYDLVL

Variants of: B1
Assay: fluorescence polarisation saturation
Conditions: with partner chain of the complex shown

Variant	Kd
chain 1 NNELSPVALRQMSCAAGTTQTACTDDNALAYYNTTKGGRFVLALLSDLQDLKWARFPKSDGTGTIYTELEPPCRFVTDTPKGPKVKYLYFIKGLNNLNRNMVLDSLAATVRLQ [chain 1 G100N G104D]	20 µM
